Test results as given in patent US20260265410A1 (UNIVERSITY OF FLORIDA RESEARCH FOUNDATION, published 2026).

T1: mouse PTPRG ECD (amino acid residues 20-733 of mouse PTPRG) fused to hFc (mouse, UniProt Q05909 20-733)
T1 construct: Produced in-house; also called mPTPRG-ECD; Mouse PTPRG-ECD-hFc; not shown: human Fc (hFc)
T1 sequence: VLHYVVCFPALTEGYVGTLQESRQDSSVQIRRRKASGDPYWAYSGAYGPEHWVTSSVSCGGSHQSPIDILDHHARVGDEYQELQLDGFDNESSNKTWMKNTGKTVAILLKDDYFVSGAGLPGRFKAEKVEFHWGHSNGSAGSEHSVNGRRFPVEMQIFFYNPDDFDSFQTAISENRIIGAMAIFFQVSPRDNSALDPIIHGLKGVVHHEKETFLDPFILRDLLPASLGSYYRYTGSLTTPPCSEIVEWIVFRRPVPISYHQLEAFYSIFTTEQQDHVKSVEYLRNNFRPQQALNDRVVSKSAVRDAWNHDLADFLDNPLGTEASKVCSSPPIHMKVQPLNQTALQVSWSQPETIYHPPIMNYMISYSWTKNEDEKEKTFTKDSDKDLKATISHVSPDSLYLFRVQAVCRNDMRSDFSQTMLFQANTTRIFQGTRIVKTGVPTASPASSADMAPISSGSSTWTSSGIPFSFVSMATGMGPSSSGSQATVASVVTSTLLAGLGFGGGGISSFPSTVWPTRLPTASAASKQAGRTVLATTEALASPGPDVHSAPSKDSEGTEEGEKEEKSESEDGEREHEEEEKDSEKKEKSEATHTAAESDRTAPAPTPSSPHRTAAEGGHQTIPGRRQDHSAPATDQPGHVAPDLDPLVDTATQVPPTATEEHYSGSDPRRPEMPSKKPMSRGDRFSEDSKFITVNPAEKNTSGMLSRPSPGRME

T2: C-terminal domain (CTD) of human PTPRG (amino acid residues 349~736 of human PTPRG) (human, UniProt P23470 349-736)
T2 construct: also called hPTPRG-CTD; human PTPRG carboxyl domain
T2 sequence: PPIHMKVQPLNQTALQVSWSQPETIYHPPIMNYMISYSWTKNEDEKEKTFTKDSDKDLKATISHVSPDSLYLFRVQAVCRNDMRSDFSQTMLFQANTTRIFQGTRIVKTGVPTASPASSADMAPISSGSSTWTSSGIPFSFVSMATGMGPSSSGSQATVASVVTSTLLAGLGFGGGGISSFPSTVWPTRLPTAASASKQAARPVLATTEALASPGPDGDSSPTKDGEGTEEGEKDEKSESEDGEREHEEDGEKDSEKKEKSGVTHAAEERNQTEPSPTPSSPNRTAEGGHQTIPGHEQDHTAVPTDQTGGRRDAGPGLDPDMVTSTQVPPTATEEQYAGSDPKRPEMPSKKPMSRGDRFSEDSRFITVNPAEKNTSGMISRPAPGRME


Assays:
[1] = target: T1, mouse PTPRG ECD (amino acid residues …); test: ELISA, one condition per Fab and antigen; y axis 0 to 1.8 without name or unit
[2] = target: T2, C-terminal domain (CTD) of human PTPRG …; test: as above
[3] = target: T3, human PTPRG on the cell surface (U937 cells, HEL cells) (human, UniProt P23470 20-1445); test: flow cytometry on whole HEL cells, screen of the 28 clones (Ctrl row = 0); PTPRG is named as the antigen on HEL cells only in the later examples
T3 construct: Endogenous PTPRG of human AML cell lines

[4] = target: T3, human PTPRG on the cell surface (U937 …); test: flow cytometry on whole U937 cells, screen of the 28 clones (Ctrl row = 0); PTPRG is named as the antigen on U937 cells only in the later examples

T3 sequence (P23470 20-1445): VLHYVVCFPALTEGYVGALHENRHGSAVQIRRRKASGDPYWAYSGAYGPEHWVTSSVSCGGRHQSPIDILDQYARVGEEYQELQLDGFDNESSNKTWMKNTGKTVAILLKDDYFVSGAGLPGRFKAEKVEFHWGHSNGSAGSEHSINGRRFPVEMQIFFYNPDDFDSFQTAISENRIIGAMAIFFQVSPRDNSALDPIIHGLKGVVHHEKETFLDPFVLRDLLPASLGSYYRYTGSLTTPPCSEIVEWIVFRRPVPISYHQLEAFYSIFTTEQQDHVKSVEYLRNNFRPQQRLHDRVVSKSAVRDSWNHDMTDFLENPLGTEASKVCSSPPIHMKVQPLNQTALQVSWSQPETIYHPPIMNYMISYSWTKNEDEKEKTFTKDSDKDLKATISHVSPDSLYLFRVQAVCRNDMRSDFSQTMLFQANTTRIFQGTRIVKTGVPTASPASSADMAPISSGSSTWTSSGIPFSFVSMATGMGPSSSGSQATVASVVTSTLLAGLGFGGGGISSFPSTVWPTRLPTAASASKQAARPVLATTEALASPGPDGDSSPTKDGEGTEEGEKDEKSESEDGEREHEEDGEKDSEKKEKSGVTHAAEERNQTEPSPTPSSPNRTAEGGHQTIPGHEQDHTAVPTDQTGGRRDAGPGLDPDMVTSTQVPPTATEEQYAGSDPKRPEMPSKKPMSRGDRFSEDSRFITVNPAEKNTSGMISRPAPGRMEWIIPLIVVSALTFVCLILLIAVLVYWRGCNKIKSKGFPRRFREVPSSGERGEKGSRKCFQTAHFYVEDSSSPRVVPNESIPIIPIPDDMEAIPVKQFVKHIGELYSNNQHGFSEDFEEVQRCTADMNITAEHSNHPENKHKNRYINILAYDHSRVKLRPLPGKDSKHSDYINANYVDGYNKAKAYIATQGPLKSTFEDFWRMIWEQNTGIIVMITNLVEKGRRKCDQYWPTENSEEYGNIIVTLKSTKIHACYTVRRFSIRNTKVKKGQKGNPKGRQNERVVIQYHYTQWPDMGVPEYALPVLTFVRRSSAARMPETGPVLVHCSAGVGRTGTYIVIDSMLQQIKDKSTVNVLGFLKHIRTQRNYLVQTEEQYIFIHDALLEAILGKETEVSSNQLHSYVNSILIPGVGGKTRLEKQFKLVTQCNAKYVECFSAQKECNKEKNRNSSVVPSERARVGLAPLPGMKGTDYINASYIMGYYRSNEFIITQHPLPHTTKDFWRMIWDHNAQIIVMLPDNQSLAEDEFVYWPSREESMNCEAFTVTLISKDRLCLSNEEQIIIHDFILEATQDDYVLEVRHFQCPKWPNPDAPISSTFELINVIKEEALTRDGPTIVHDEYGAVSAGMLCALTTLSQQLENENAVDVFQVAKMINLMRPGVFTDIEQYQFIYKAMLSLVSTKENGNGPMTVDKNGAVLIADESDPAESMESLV

binding result [1]	binding result [2]	flow cytometry binding value (the table prints no name or unit) [3]	flow cytometry binding value (the table prints no name or unit) [4]	Binder
binds	no binding	17.1	92.7	Fab_3208 (Fab, V domains shown, Chimeric rabbit/human Fab; also called P3208; clone 3208) VH: AQSVKESEGGLFKPTDTLTLTCTVSGFSLSSYAISWVRRAPGNGLEWIGAIAGYGDAYYASWAKSRSTITRNTNENTVTLKMTSLTAADTATYFCARDDYNVDTGIWGPGTLVTISS VL: SFVLTQPASVQVNLGQTVSLTCTADTLSRRYASWYQQKPGQAPVLLIYRDTSRPSGVPDRFSGSSSGNTATLTISGAQAGDEADYYCATGDGSGSSYQYVFGGGTQLTVTG
binds	no binding	15.8	87.5	Fab_17 (Fab, V domains shown, Chimeric rabbit/human Fab; also called P17; clone 17) VH: AQSLEEFGGRLATPGTPLTLTCTASGFSLGTYSMSWVRQAPGKGLEWIGTIGGRGDAYYASWAKGRFTISRTSTTVDLKMTSLATEDTATYFCVRENYGYAFDIWGPGTLVTISS VL: SFVLTQPASVQVNLGQTVSLTCTADTLSRRYASWYQQKPGQAPVLLIYRDTSRPSGVPDRFSGSSSGNTATLTISGAQAGDEADYYCATSDGSGSSYQCVFGGGTQLTVTG
binds	no binding	14.5	85	Fab_2861 (Fab, V domains shown, Chimeric rabbit/human Fab; also called P2861; clone 2861) VH: AQSVEESGGRLVTPGTPLTLTCTVSGIDLSSYAMGWVRQAPGKGLEYIGIIVSDGRTYYTSWAKGRFTISKTSTTVDLKMTSPTTEDTATYFCAREGYGYYFDIWGPGTLVTISS VL: SFVLTQPASVQVNLGQTVSLTCTADTLSRRYASWYQQKPGQAPVLLIYRDTSRPSGVPDRFSGSSSGNTATLTISGAQAGDEADYYCATADGSGSSYQFVFGGGTQLTVTG
binds	no binding	13.6	91.4	Fab_2653 (Fab, V domains shown, Chimeric rabbit/human Fab; also called P2653; clone 2653) VH: QEQLEESGGRLVTPGTPLTLTCTASGFSLSTYAMTWVRQAPGKGLEWIGIIDRYGYTYYANWARGRFTISKTSTTVDLKITSPTTEDTATYFCARDLPGYNVGTYFNMWGPGTLVTISS VL: SFVLTQPASVQVNLGQTVSLTCTADTLSRRYASWYQQKPGQAPVLFIYRDTSRPSGVPDRFSGSSSGSTATLTISGAQAGDEADYYCATSDGSGSSYQFVFGGGTQLTVTG

More lines, now with the values behind:

Binder	binding result [1]	binding result [2]	flow cytometry binding value (the table prints no name or unit) [3]	flow cytometry binding value (the table prints no name or unit) [4]
Fab_240 (Fab, V domains shown, Chimeric rabbit/human Fab; also called P240; clone 240) VH: AQSLEESGGRLVTPGTPLTLTCTVSGFSLSAYAMSWVRQAPGKGLEWIGIISSYGNTYYATWAKGRFTISKTSTTVDLKITSPTTEDTATYFCARGDYGNGMSIWGPGTLVTVSS VL: SFVLTQPASVQVNLGQTVSLTCTADTLSRRYASWYQQKPGQAPVLLIYRDTRRPSGVPDRFSGSSSGNTATLTISGAQAGDEADYYCATSDGSGSSYQCVFGGGTQLTVTG	binds	no binding	17.5	92.7
Fab_1707 (Fab, V domains shown, Chimeric rabbit/human Fab; also called P1707) VH: AQSLEEFGGGLIKPGGTLTLTCTASGFTISSYDMSWVRQAPGSGLEWIGTMAYGGDTYHASWAKSRSTITRDTNLNTVTLKMTSLTVADTATYFCARDVGSGHYYDDMYLWGPGTLVTVSS VL: SFVLTQPASVQVNFGQTVSLTCTADTLSRRYASWYQQKPGQAPVLLIYRDTSRPSGVPDRFSGSSSGNTATLTISGAQAGDEADYYCATGDGSGSSYNYVFGGGTQLTVTG	binds	no binding	16.9	92
Fab_28 (Fab, V domains shown, Chimeric rabbit/human Fab; also called P28; clone 28) VH: AQSVEESGGRLVTPGIPLTLTCTVSGFSLNNYAMSWVRQAPGKGLEWIGMIDSGGAAYYATWARGRFTISRTSTTVDLKITSPTTEDTATYFCARELSSLYGAFDPWGPGTLVTVSS VL: SFVLTQPASVQVNLGQTVSLTCTADTLSRRYASWYQQKPGQAPVLLIYRDTSRPSGVPDRFSGSSSGNTATLTISGAQAGDEADYYCATSDGSGSSYQCVFGGGTQLTVTG	binds	no binding	15.8	87.5
Fab_1187 (Fab, V domains shown, Chimeric rabbit/human Fab; also called P1187; mAb_1187) VH: AQSVEESGGRLVTPGTPLTLTCTVSGIDLSSYAMSWVRQAPGKGLEWIGVIDGSGSTWYANWVKGRFTISKTTTVDLKITSPTTEDTATYFCAREDYGSETIDFNIWGPGTLVTVSS VL: SFVLTQPASVQVNLGQTVSLTCTADTLSRRYASWYQQKPGQAPVLLIYRDTRRPSGVPDRFSGSSSGNTATLTISGAQAGDEADYYCATSDGSGSSYQYVFGGGTQLTVTG			10.7	29.3
Fab_2388 (Fab, V domains shown, Chimeric rabbit/human Fab; also called P2388; clone 2388) VH: QEQLKESGGGLFKPTDTLTLTCTVSGFSLSNYAISLVRQPPGNGLEWIGAIDAGGVTYYASWAKSRSTITRNTNLNTVTLKMTSLTAADTATYFCAREEWSSSSGLYFSIWGPGTLVTISS VL: SFVLTQPASVQVNLGQTVSLTCTADTLSRRYASWYQQKPGQAPVLLIYRDTSRPSGVPDRFSGSSSGNTATLTISGAQAGDEADYYCATSDGSGSSYLYVFGGGTQLTVTG			15	90.9
